Laboratory results taken from patent US9266930.

B1: … (EXP position 92, 9 amino acids) (peptide)
peptide: LLGGVGLVL
modifications: not checked
B2: … (P. falciparum EXP-1, position 5, 10 amino acids) (peptide)
peptide: SVFFLALFFI
modifications: not checked
B3: … (P. falciparum EXP-1, position 91, 9 amino acids) (peptide)
peptide: VLLGGVGLV
modifications: not checked
B4: … (Pf SSP2 503, 9-mer) (peptide)
peptide: GIAGGLALL
modifications: not checked
B5: … (Pf SSP2 507, 10-mer) (peptide)
peptide: GLALLACAGL
modifications: not checked
B6: … (Pf SSP2 3, 9-mer) (peptide)
peptide: HLGNVKYLV
modifications: not checked
B7: … (Pf SSP2 12, 9-mer A02 supermotif peptide) (peptide)
peptide: IVFLIFFDL
modifications: not checked
B8: … (Pf SSP2 15, 9-mer A02 supermotif peptide) (peptide)
peptide: LIFFDLFLV
modifications: not checked
B9: … (Pf SSP2 51, 9-mer A02 supermotif peptide) (peptide)
peptide: LLMDCSGSI
modifications: not checked
B10: SSP2 218 … (peptide)
peptide: SAWENVKNV
modifications: not checked
B11: SSP2 226 … (peptide)
peptide: VIGPFMKAV
modifications: not checked
B12: SSP2 11 … (peptide)
peptide: VIVFLIFFDL
modifications: not checked
B13: SSP2 50 … (peptide)
peptide: YLLMDCSGSI
modifications: not checked
B14: … (peptide)
peptide: VVILTDGIPDSIQDS
modifications: not checked
B15: … (peptide)
peptide: MKILSVFFLALFFII
modifications: not checked
B16: … (peptide)
peptide: AVPLAMKLIQQLNLN
modifications: not checked
B17: … (peptide)
peptide: KYLVIVFLIFFDLFL
modifications: not checked
B18: … (peptide)
peptide: AGGIAGGLALLACAG
modifications: not checked
B19: … (Pf SSP2 448) (peptide)
peptide: NSEDRETRPH
modifications: not checked
B20: … (Pf SSP2 165) (peptide)
peptide: PDSIQDSLK
modifications: not checked
B21: … (Pf SSP2 328) (peptide)
peptide: PSPNPEEGK
modifications: not checked
B22: … (Pf SSP2 280) (peptide)
peptide: QCEEERCPPK
modifications: not checked
B23: … (Pf SSP2 169) (peptide)
peptide: QDSLKESRK
modifications: not checked
B24: … (Pf SSP2 192) (peptide)
peptide: QGINVAFNR
modifications: not checked
B25: … (Pf SSP2 436) (peptide)
peptide: QSQDNNGNR
modifications: not checked
B26: Pf EXP peptide … (position 32) (peptide)
peptide: GVSSKKKNK
modifications: not checked
B27: Pf EXP peptide … (position 32) (peptide)
peptide: GVSSKKKNKK
modifications: not checked
B28: Pf EXP peptide … (position 51) (peptide)
peptide: HDLISDMIK
modifications: not checked
B29: Pf EXP peptide … (position 51) (peptide)
peptide: HDLISDMIKK
modifications: not checked
B30: Pf EXP peptide … (position 15) (peptide)
peptide: IFNKESLAEK
modifications: not checked
B31: Pf EXP peptide … (position 27) (peptide)
peptide: KGTGSGVSSK
modifications: not checked
B32: … (Pf SSP2 235) (peptide)
peptide: CVEVEKTASCGVWDE
modifications: not checked
B33: … (Pf SSP2 15) (peptide)
peptide: LIFFDLFLVNGRDVQ
modifications: not checked
B34: … (Pf SSP2 7) (peptide)
peptide: VKYLVIVFLIFFDLF
modifications: not checked
B35: … (Pf SSP2 436, 10-mer) (peptide)
peptide: QSQDNNGNRH
modifications: not checked
B36: … (Pf SSP2 139, 9-mer) (peptide)
peptide: QVRKHLNDR
modifications: not checked
B37: … (Pf SSP2 262, 9-mer) (peptide)
peptide: RSRKREILH
modifications: not checked
B38: … (Pf SSP2 167, 10-mer) (peptide)
peptide: SIQDSLKESR
modifications: not checked
B39: … (Pf SSP2 58, 10-mer) (peptide)
peptide: SIRRHNWVNH
modifications: not checked
B40: … (Pf SSP2 120, 9-mer) (peptide)
peptide: SLLSTNLPY
modifications: not checked
B41: … (Pf SSP2 203, 9-mer) (peptide)
peptide: VGCHPSDGK
modifications: not checked
B42: … (Pf SSP2 521, 9-mer) (peptide)
peptide: VVPGAATPY
modifications: not checked
B43: … (Pf SSP2 250, 10-mer) (peptide)
peptide: WSPCSVTCGK
modifications: not checked
B44: … (Pf SSP2 215, 10-mer) (peptide)
peptide: YADSAWENVK
modifications: not checked

The binders below were run against HLA-A*0201 (Human) (assay: not given). Details: not given.

Binder | binding affinity ratio (IC50 of standard peptide / IC50 of test peptide)
B1 | 0.0038
B2 | 0.0017
B3 | 0.029
B4 | 0.0022
B5 | 0.017
B6 | 0.0017
B7 | 0.0024
B8 | 0.089
B9 | 0.046
B10 | 0.0019
B11 | 0.0004
B12 | 0.0038
B13 | 0.17

The binders below were run against HLA-DR1 (DRB1*0101) (human) (assay: not given). Details: not given.

Binder | binding affinity ratio (IC50 of standard peptide / IC50 of test peptide)
B14 | 0.0001

These binders were tested against HLA-DR2w2β2 (DRB5*0101) (human) (assay: not given). Details: not given.

Binder | binding affinity ratio (IC50 of standard peptide / IC50 of test peptide)
B15 | -0.0021
B16 | -0.0006
B14 | -0.0006
B17 | -0.002

Each binder was assayed against HLA-DR4w15 (DRB1*0405) (human) (assay: not given). Details: not given.

Binder | binding affinity ratio (IC50 of standard peptide / IC50 of test peptide)
B17 | -0.003

The binders below were run against HLA-DR5w11 (DRB1*1101) (human) (assay: not given). Details: not given.

Binder | binding affinity ratio (IC50 of standard peptide / IC50 of test peptide)
B15 | -0.001
B18 | -0.0002
B16 | 0.0002
B14 | -0.0004
B17 | -0.0009

What follows are binders tested against HLA-A*1101 (human) (assay: not given). Details: not given.

Binder | binding affinity ratio (IC50 of standard peptide / IC50 of test peptide)
B19 | 0.0002
B20 | 0.0002
B21 | 0.0002
B22 | 0.0002
B23 | 0.0002
B24 | 0.078
B25 | 0.0002

Same assay, conditions: scale: ratio

Binder | binding affinity ratio (relative to standard peptide)
B26 | 0.0002
B27 | 0.0002
B28 | 0.0002
B29 | 0.0002
B30 | 0.0003
B31 | 0.0009

Biological target: T1, HLA-DR5w12 (DRB1*1201) (human)
T1 chain 1: not shown
T1 chain 2: not shown
Assay: not given
Details: not given

Binder | binding affinity ratio (IC50 of standard peptide / IC50 of test peptide)
B32 | 0.0001

Biological target: T2, HLA-DR7 (DRB1*0701) (human)
T2 chain 1: not shown
T2 chain 2: not shown
Assay: not given
Details: not given

Binder | binding affinity ratio (IC50 of standard peptide / IC50 of test peptide)
B33 | 0.047
B34 | 0.001
B32 | 0.0095

Biological target: T3, HLA-DR8w2 (DRB1*0802) (human)
T3 chain 1: not shown
T3 chain 2: not shown
Assay: not given
Details: not given

Binder | binding affinity ratio (IC50 of standard peptide / IC50 of test peptide)
B32 | 0.0005

What follows are binders tested against HLA-A*1101 (purified HLA class I molecule) (human) (assay: competition with a 125I-labelled probe peptide for purified HLA-A*1101). Details: not given.

Binder | binding affinity ratio (IC50 of standard peptide / IC50 of test peptide)
B35 | 0.0002
B36 | 0.0002
B37 | 0.0002
B38 | 0.0009
B39 | 0.0002
B40 | 0.0046
B41 | 0.0003
B42 | 0.0002
B43 | 0.0002
B44 | 0.0002
